Broadly, the Tm is the temperature at the midpoint of the melting transition.

This is an account of results in FireProtDB (doi:10.1006/jmbi.1995.0323).

B1: Subtilisin inhibitor, P01006 (parent)
chain: MRNTGAGPSPSVSRPPPSAAPLSGAALAAPGDAPSALYAPSALVLTVGKGVSATTAAPERAVTLTCAPGPSGTHPAAGSACADLAAVGGDLNALTRGEDVMCPMVYDPVLLTVDGVWQGKRVSYERVFSNECEMNAHGSSVFAF

This series covers variants of B1. To be noted: Streptomyces albogriseolus, Thermal, DSC, reversible: yes, structure 3SSI, whole UniProt chain shown.
Where [1] appears, read: pH 7, 82.21 °C, Sodium phosphate 25 mM.
Setting [2] is: pH 3.2, 53.36 °C, glycine 25 mM.

Turning to MRNTGAGPSPSVSRPPPSAAPLSGAALAAPGDAPSALYAPSALVLTVGKGVSATTAAPERAVTLTCAPGPSGTHPAAGSACADLAAVGGDLNALTRGEDVMCPMVYDPVLLTVDGVWQGKRVSYERVFSNECEINAHGSSVFAF, the Tm runs as follows: (pH 3.2, glycine 25 mM) 46.1 °C; (pH 7, Sodium phosphate 25 mM) 78.3 °C; (pH 9.5, glycine 25 mM) 75.9 °C. Further, the “change of melting temperature, mutant - wild type (higher = more stable)” value (“change of melting temperature, mutant” for short) was -7.3 °C (pH 3.2, glycine 25 mM); -3.9 °C (pH 7, Sodium phosphate 25 mM); -4.8 °C (pH 9.5, glycine 25 mM). The “unfolding enthalpy (calorimetric)” value reads like this: (pH 3.2, glycine 25 mM) 98.8 kcal/mol; (pH 7, Sodium phosphate 25 mM) 179 kcal/mol; (pH 9.5, glycine 25 mM) 175 kcal/mol. Moreover, the “ddG of mutation (higher = less stable)” value runs as follows: under setting [1], 1.89 kcal/mol; (pH 9.5, 80.7 °C, glycine 25 mM) 2.29 kcal/mol. For the same variant, the unfolding free energy is 4.14 kcal/mol under setting [1] and 3.75 kcal/mol (pH 9.5, 80.7 °C, glycine 25 mM).

For MRNTGAGPSPSVSRPPPSAAPLSGAALAAPGDAPSALYAPSALVLTVGKGVSATTAAPERAVTLTCAPGPSGTHPAAGSACADLAAVGGDLNALTRGEDVMCPMVYDPVLLTVDGVWQGKRVSYERVFSNECEANAHGSSVFAF, under setting [2], the “ddG of mutation (higher = less stable)” value stood at 1.35 kcal/mol and the unfolding free energy is 4.2 kcal/mol. Besides, where the note is “pH 3.2, glycine 25 mM”, the Tm came to 49.3 °C; the “change of melting temperature, mutant” value was -4.1 °C; the “unfolding enthalpy (calorimetric)” value was 113 kcal/mol. Besides, under setting [1], the “ddG of mutation (higher = less stable)” value was 2.32 kcal/mol and the unfolding free energy was 3.71 kcal/mol. Moreover, where the note is “pH 9.5, glycine 25 mM”, the Tm is 75.5 °C; the “change of melting temperature, mutant” value was -5.18 °C; the “unfolding enthalpy (calorimetric)” value turned out to be 193 kcal/mol.

Turning to MRNTGAGPSPSVSRPPPSAAPLSGAALAAPGDAPSALYAPSALVLTVGKGVSATTAAPERAVTLTCAPGPSGTHPAAGSACADLAAVGGDLNALTRGEDVMCPMVYDPVLLTVDGVWQGKRVSYERVFSNECEGNAHGSSVFAF, under “pH 7, Sodium phosphate 25 mM”, the Tm turned out to be 68.6 °C; the “change of melting temperature, mutant” value was -13.6 °C; the “unfolding enthalpy (calorimetric)” value was 191 kcal/mol. Besides, under “pH 9.5, glycine 25 mM”, the Tm was found to be 66.3 °C; the “change of melting temperature, mutant” value was -14.4 °C; the “unfolding enthalpy (calorimetric)” value was determined as 187 kcal/mol.

On to MRNTGAGPSPSVSRPPPSAAPLSGAALAAPGDAPSALYAPSALVLTVGKGVSATTAAPERAVTLTCAPGPSGTHPAAGSACADLAAVGGDLNALTRGEDVMCPMVYDPVLLTVDGVWQGKRVSYERVFSNECELNAHGSSVFAF, for which the “ddG of mutation (higher = less stable)” value reads like this: under setting [2], -0.77 kcal/mol; under setting [1], -0.15 kcal/mol; (pH 9.5, 80.7 °C, glycine 25 mM) 0.29 kcal/mol. The unfolding free energy worked out at 6.32 kcal/mol under setting [2]; 6.18 kcal/mol under setting [1]; 5.75 kcal/mol (pH 9.5, 80.7 °C, glycine 25 mM). Further, the Tm is, setting by setting: (pH 7, Sodium phosphate 25 mM) 82.5 °C; (pH 9.5, glycine 25 mM) 80.2 °C. Moreover, the “change of melting temperature, mutant” value was 0.3 °C (pH 7, Sodium phosphate 25 mM) and -0.48 °C (pH 9.5, glycine 25 mM). Further, the “unfolding enthalpy (calorimetric)” value runs as follows: (pH 7, Sodium phosphate 25 mM) 182 kcal/mol; (pH 9.5, glycine 25 mM) 178 kcal/mol.

Regarding MRNTGAGPSPSVSRPPPSAAPLSGAALAAPGDAPSALYAPSALVLTVGKGVSATTAAPERAVTLTCAPGPSGTHPAAGSACADLAAVGGDLNALTRGEDVMCPMVYDPVLLTVDGVWQGKRVSYERVFSNECEVNAHGSSVFAF, the “ddG of mutation (higher = less stable)” value under setting [2] worked out at 1.35 kcal/mol; the “ddG of mutation (higher = less stable)” value under setting [1] came out at 1.84 kcal/mol; the “ddG of mutation (higher = less stable)” value (pH 9.5, 80.7 °C, glycine 25 mM) is 2.22 kcal/mol. For the same variant, the unfolding free energy came out at 4.2 kcal/mol under setting [2]; 4.19 kcal/mol under setting [1]; 3.82 kcal/mol (pH 9.5, 80.7 °C, glycine 25 mM). Further, the Tm by setting is: (pH 3.2, glycine 25 mM) 49.1 °C; (pH 7, Sodium phosphate 25 mM) 78.6 °C; (pH 9.5, glycine 25 mM) 76.4 °C. Also, the “change of melting temperature, mutant” value was -4.3 °C (pH 3.2, glycine 25 mM); -3.6 °C (pH 7, Sodium phosphate 25 mM); -4.33 °C (pH 9.5, glycine 25 mM). The “unfolding enthalpy (calorimetric)” value by setting is: (pH 3.2, glycine 25 mM) 107 kcal/mol; (pH 7, Sodium phosphate 25 mM) 179 kcal/mol; (pH 9.5, glycine 25 mM) 184 kcal/mol.
